From patent US20240392276

Target: eGFP displaying an MBP tag connected with a TEV cleavage site (MBP-TEVsite-eGFP)

B1: His-CBD-TEV protease (protein)
chain: HHHHHHGSGSSGLTTNPGVSAWQVNTAYTAGQLVTYNGKTYKCLQPHTSLAGWEPSNVPALWQLQGSGSSGESLFKGPRDYNPISSSICHLTNESDGHTTSLYGIGFGPFIITNKHLFRRNNGTLVVQSLHGVFKVKDTTTLQQHLVDGRDMIIIRMPKDFPPFPQKLKFREPQREERICLVTTNFQTKSMSSMVSDTSCTFPSGDGIFWKHWIQTKDGQCGSPLVSTRDGFIVGIHSASNFTNTNNYFTSVPKNFMELLTNQEAQQWVSGWRLNADSVLWGGHKVFMSKPEEPFQPVKEATQLMN
  digestion on Bis-tris protein gel (protease activity): In the presence of His-CBD-TEV, MBP-TEVsite-eGFP is cleaved into the MBP tag (43 kDa) and eGFP (33 kDa)
